These results are taken from patent US20260209386A1 (MYTHIC THERAPEUTICS, published 2026).

In the assay the target is T1, Human PTK7 Protein, His Tag, Acro Biosystems (human, UniProt Q13308 31-704).
T1 construct: Bought recombinant protein; also called CCK4; not shown: His tag
T1 sequence: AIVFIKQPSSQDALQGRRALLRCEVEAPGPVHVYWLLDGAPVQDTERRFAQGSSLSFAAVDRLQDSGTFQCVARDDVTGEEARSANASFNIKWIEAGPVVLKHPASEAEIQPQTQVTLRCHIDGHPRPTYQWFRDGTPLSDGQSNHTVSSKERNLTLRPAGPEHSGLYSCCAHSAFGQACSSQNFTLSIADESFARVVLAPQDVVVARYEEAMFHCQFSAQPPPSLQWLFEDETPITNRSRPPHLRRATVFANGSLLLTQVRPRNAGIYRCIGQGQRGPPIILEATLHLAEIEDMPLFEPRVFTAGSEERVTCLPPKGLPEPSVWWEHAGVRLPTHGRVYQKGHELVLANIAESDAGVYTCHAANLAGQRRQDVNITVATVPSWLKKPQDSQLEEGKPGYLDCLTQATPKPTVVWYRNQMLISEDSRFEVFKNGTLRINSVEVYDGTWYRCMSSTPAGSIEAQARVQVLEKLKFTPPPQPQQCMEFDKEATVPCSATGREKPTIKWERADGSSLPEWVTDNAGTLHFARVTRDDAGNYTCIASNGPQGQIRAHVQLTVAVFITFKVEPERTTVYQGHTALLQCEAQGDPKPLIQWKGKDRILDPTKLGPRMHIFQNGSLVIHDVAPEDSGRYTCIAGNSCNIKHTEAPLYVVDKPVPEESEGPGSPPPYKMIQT
The assay is described as follows: BLI, anti-human Fc capture, 50 nM PTK7; 2 = substantially similar binding relative to parent. A general note: BLI is a label-free optical method that tracks binding on a fibre tip over time.

B1: MYT11275 (antibody, V domains shown)
VH: EVQLVESGGGLVQPGGSLRLSCTASGIDLSRYSMGWVRQAPGKGLEWVGIISYGGSTYYAHWAKGRFTISRDTSKNTVYLQMNSLRAEDTAVYFCARVGYPGYSGYGYAFDAFDPWGQGTLVTVSS
VL: EIVMTQSPSTLSASVGDRVIITCQSSKSVYNDNWLSWYQQKPGKAPKLLIYGASTLASGVPSRFSGSGSGAEFTLTISSLQPDDFATYYCAGGYSSSSDNGFGQGTKLTVL
notes: MYT9792 variant, His at VH 61 (H2 12)
B1: the binding result was “binds”.

B2: MYT11300 (antibody, V domains shown)
VH: EVQLVESGGGLVQPGGSLRLSCTASGIDLSRYSMGWVRQAPGKGLEWVGIISYGGSTYYASWAKGRFTISRDTSKNTVYLQMNSLRAEDTAVYYCARVGYPGYSGYGYAFDAFDPWGQGTLVTVSS
VL: EIVMTQSPSTLSASVGDRVIITCQSSKSVYNDNWLSWYQQKPGKAPKLLIYGASTLASGVPSRFSGSGSGAEFTLTISSLQPDDFATYYCAGGYSSSSDNGFGQGTKLTVL
For the molecule B2, the binding result is “binds”.

B3: MYT11313 (antibody, V domains shown)
VH: EVQLVESGGGLVQPGGSLRLSCTASGIDLSRYSMGWVRQAPGKGLEWVGIISYGGSTYYASWAKGRFTISRDTSKNTVYLQMNSLRAEDTAVYFCARVGYPGYSGYGYAFDAFDPWGQGTLVTVSS
VL: EIVMTQSPSTLSASVGDRVIITCQSSKSVYNDHWLSWYQQKPGKAPKLLIYGASTLASGVPSRFSGSGSGAEFTLTISSLQPDDFATYYCAGGYSSSSDNGFGQGTKLTVL
notes: MYT9792 variant, His at VL 33 (L1 10)
Regarding B3, the binding result is recorded as “binds”.

B4: MYT11278 (antibody, V domains shown)
VH: EVQLVESGGGLVQPGGSLRLSCTASGIDLSRYSMGWVRQAPGKGLEWVGIISYGGSTYYASWAHGRFTISRDTSKNTVYLQMNSLRAEDTAVYFCARVGYPGYSGYGYAFDAFDPWGQGTLVTVSS
VL: EIVMTQSPSTLSASVGDRVIITCQSSKSVYNDNWLSWYQQKPGKAPKLLIYGASTLASGVPSRFSGSGSGAEFTLTISSLQPDDFATYYCAGGYSSSSDNGFGQGTKLTVL
notes: MYT9792 variant, His at VH 64 (H2 15)
In the case of B4, the binding result is recorded as “binds”.

B5: MYT11314 (antibody, V domains shown)
VH: EVQLVESGGGLVQPGGSLRLSCTASGIDLSRYSMGWVRQAPGKGLEWVGIISYGGSTYYASWAKGRFTISRDTSKNTVYLQMNSLRAEDTAVYFCARVGYPGYSGYGYAFDAFDPWGQGTLVTVSS
VL: EIVMTQSPSTLSASVGDRVIITCQSSKSVYNDNHLSWYQQKPGKAPKLLIYGASTLASGVPSRFSGSGSGAEFTLTISSLQPDDFATYYCAGGYSSSSDNGFGQGTKLTVL
notes: MYT9792 variant, His at VL 34 (L1 11)
B5: the binding result was “binds”.

B6: MYT11312 (antibody, V domains shown)
VH: EVQLVESGGGLVQPGGSLRLSCTASGIDLSRYSMGWVRQAPGKGLEWVGIISYGGSTYYASWAKGRFTISRDTSKNTVYLQMNSLRAEDTAVYFCARVGYPGYSGYGYAFDAFDPWGQGTLVTVSS
VL: EIVMTQSPSTLSASVGDRVIITCQSSKSVYNHNWLSWYQQKPGKAPKLLIYGASTLASGVPSRFSGSGSGAEFTLTISSLQPDDFATYYCAGGYSSSSDNGFGQGTKLTVL
notes: MYT9792 variant, His at VL 32 (L1 09)
Consider B6, for which the binding result is “binds”.

B7: MYT11298 (antibody, V domains shown)
VH: EVQLVESGGGLVQPGGSLRLSCTASGIDLSRYSMGWVRQAPGKGLEWVGIISYGGSTYYASWAKGRFTISRDTSKNTVYLQMNSLRAEDTAVYFCARVGYPGYSGYGYAFDAFHPWGQGTLVTVSS
VL: EIVMTQSPSTLSASVGDRVIITCQSSKSVYNDNWLSWYQQKPGKAPKLLIYGASTLASGVPSRFSGSGSGAEFTLTISSLQPDDFATYYCAGGYSSSSDNGFGQGTKLTVL
Regarding B7, the binding result is on record as “binds”.

B8: MYT11288 (antibody, V domains shown)
VH: EVQLVESGGGLVQPGGSLRLSCTASGIDLSRYSMGWVRQAPGKGLEWVGIISYGGSTYYASWAKGRFTISRDTSKNTVYLQMNSLRAEDTAVYFCARVGYPGYHGYGYAFDAFDPWGQGTLVTVSS
VL: EIVMTQSPSTLSASVGDRVIITCQSSKSVYNDNWLSWYQQKPGKAPKLLIYGASTLASGVPSRFSGSGSGAEFTLTISSLQPDDFATYYCAGGYSSSSDNGFGQGTKLTVL
notes: MYT9792 variant, His at VH 104 (H3 09)
On to B8, for which the binding result is “binds”.

B9: MYT11286 (antibody, V domains shown)
VH: EVQLVESGGGLVQPGGSLRLSCTASGIDLSRYSMGWVRQAPGKGLEWVGIISYGGSTYYASWAKGRFTISRDTSKNTVYLQMNSLRAEDTAVYFCARVGYPHYSGYGYAFDAFDPWGQGTLVTVSS
VL: EIVMTQSPSTLSASVGDRVIITCQSSKSVYNDNWLSWYQQKPGKAPKLLIYGASTLASGVPSRFSGSGSGAEFTLTISSLQPDDFATYYCAGGYSSSSDNGFGQGTKLTVL
notes: MYT9792 variant, His at VH 102 (H3 07)
On to B9, for which the binding result is “binds”.

B10: MYT11299 (antibody, V domains shown)
VH: EVQLVESGGGLVQPGGSLRLSCTASGIDLSRYSMGWVRQAPGKGLEWVGIISYGGSTYYASWAKGRFTISRDTSKNTVYLQMNSLRAEDTAVYFCARVGYPGYSGYGYAFDAFDHWGQGTLVTVSS
VL: EIVMTQSPSTLSASVGDRVIITCQSSKSVYNDNWLSWYQQKPGKAPKLLIYGASTLASGVPSRFSGSGSGAEFTLTISSLQPDDFATYYCAGGYSSSSDNGFGQGTKLTVL
For the molecule B10, the binding result is given as “binds”.

B11: MYT11311 (antibody, V domains shown)
VH: EVQLVESGGGLVQPGGSLRLSCTASGIDLSRYSMGWVRQAPGKGLEWVGIISYGGSTYYASWAKGRFTISRDTSKNTVYLQMNSLRAEDTAVYFCARVGYPGYSGYGYAFDAFDPWGQGTLVTVSS
VL: EIVMTQSPSTLSASVGDRVIITCQSSKSVYHDNWLSWYQQKPGKAPKLLIYGASTLASGVPSRFSGSGSGAEFTLTISSLQPDDFATYYCAGGYSSSSDNGFGQGTKLTVL
notes: MYT9792 variant, His at VL 31 (L1 08)
For B11, the binding result is on record as “binds”.

B12: MYT11276 (antibody, V domains shown)
VH: EVQLVESGGGLVQPGGSLRLSCTASGIDLSRYSMGWVRQAPGKGLEWVGIISYGGSTYYASHAKGRFTISRDTSKNTVYLQMNSLRAEDTAVYFCARVGYPGYSGYGYAFDAFDPWGQGTLVTVSS
VL: EIVMTQSPSTLSASVGDRVIITCQSSKSVYNDNWLSWYQQKPGKAPKLLIYGASTLASGVPSRFSGSGSGAEFTLTISSLQPDDFATYYCAGGYSSSSDNGFGQGTKLTVL
notes: MYT9792 variant, His at VH 62 (H2 13)
B12: the binding result is “binds”.

B13: MYT11290 (antibody, V domains shown)
VH: EVQLVESGGGLVQPGGSLRLSCTASGIDLSRYSMGWVRQAPGKGLEWVGIISYGGSTYYASWAKGRFTISRDTSKNTVYLQMNSLRAEDTAVYFCARVGYPGYSGHGYAFDAFDPWGQGTLVTVSS
VL: EIVMTQSPSTLSASVGDRVIITCQSSKSVYNDNWLSWYQQKPGKAPKLLIYGASTLASGVPSRFSGSGSGAEFTLTISSLQPDDFATYYCAGGYSSSSDNGFGQGTKLTVL
Take B13: the binding result is recorded as “binds”.

B14: MYT11304 (antibody, V domains shown)
VH: EVQLVESGGGLVQPGGSLRLSCTASGIDLSRYSMGWVRQAPGKGLEWVGIISYGGSTYYASWAKGRFTISRDTSKNTVYLQMNSLRAEDTAVYFCARVGYPGYSGYGYAFDAFDPWGQGTLVTVSS
VL: EIVMTQSPSTLSASVGDRVIITCHSSKSVYNDNWLSWYQQKPGKAPKLLIYGASTLASGVPSRFSGSGSGAEFTLTISSLQPDDFATYYCAGGYSSSSDNGFGQGTKLTVL
notes: MYT9792 variant, His at VL 24 (L1 01)
As for B14, the binding result was “binds”.

B15: MYT11301 (antibody, V domains shown)
VH: EVQLVESGGGLVQPGGSLRLSCTASGIALSRYSMGWVRQAPGKGLEWVGIISYGGSTYYASWAKGRFTISRDTSKNTVYLQMNSLRAEDTAVYFCARVGYPGYSGYGYAFDAFDPWGQGTLVTVSS
VL: EIVMTQSPSTLSASVGDRVIITCQSSKSVYNDNWLSWYQQKPGKAPKLLIYGASTLASGVPSRFSGSGSGAEFTLTISSLQPDDFATYYCAGGYSSSSDNGFGQGTKLTVL
notes: MYT9792 variant, Ala at VH 28 (H1 03)
For B15, the binding result was “binds”.

B16: MYT11277 (antibody, V domains shown)
VH: EVQLVESGGGLVQPGGSLRLSCTASGIDLSRYSMGWVRQAPGKGLEWVGIISYGGSTYYASWHKGRFTISRDTSKNTVYLQMNSLRAEDTAVYFCARVGYPGYSGYGYAFDAFDPWGQGTLVTVSS
VL: EIVMTQSPSTLSASVGDRVIITCQSSKSVYNDNWLSWYQQKPGKAPKLLIYGASTLASGVPSRFSGSGSGAEFTLTISSLQPDDFATYYCAGGYSSSSDNGFGQGTKLTVL
notes: MYT9792 variant, His at VH 63 (H2 14)
Turning to B16, the binding result is reported as “binds”.

B17: MYT11308 (antibody, V domains shown)
VH: EVQLVESGGGLVQPGGSLRLSCTASGIDLSRYSMGWVRQAPGKGLEWVGIISYGGSTYYASWAKGRFTISRDTSKNTVYLQMNSLRAEDTAVYFCARVGYPGYSGYGYAFDAFDPWGQGTLVTVSS
VL: EIVMTQSPSTLSASVGDRVIITCQSSKHVYNDNWLSWYQQKPGKAPKLLIYGASTLASGVPSRFSGSGSGAEFTLTISSLQPDDFATYYCAGGYSSSSDNGFGQGTKLTVL
notes: MYT9792 variant, His at VL 28 (L1 05)
Regarding B17, the binding result was “binds”.

B18: MYT11306 (antibody, V domains shown)
VH: EVQLVESGGGLVQPGGSLRLSCTASGIDLSRYSMGWVRQAPGKGLEWVGIISYGGSTYYASWAKGRFTISRDTSKNTVYLQMNSLRAEDTAVYFCARVGYPGYSGYGYAFDAFDPWGQGTLVTVSS
VL: EIVMTQSPSTLSASVGDRVIITCQSHKSVYNDNWLSWYQQKPGKAPKLLIYGASTLASGVPSRFSGSGSGAEFTLTISSLQPDDFATYYCAGGYSSSSDNGFGQGTKLTVL
notes: MYT9792 variant, His at VL 26 (L1 03)
With B18, the binding result is listed as “binds”.
